PMC12326332

How the values were obtained:
Assay in all cases: SPR; Biacore T200, CM-5 chip with coupled anti-GST nanobody; GST-tagged RNF38 LP variants captured, UBE2D2^S22R or UBE2D2^S22R,C85K–Ub as analyte; 25°C; 25 mM Tris–HCl pH 7.6, 150 mM NaCl, 1 mM DTT, 0.005% Tween-20; one-site binding model; two technical replicates
[1] = target: GST-RNF38^RING-R454E (UniProt Q9H0F5)
[2] = target: GST-RNF38^RING-R454T (UniProt Q9H0F5)
[3] = target: GST-RNF38^RING-R454F (UniProt Q9H0F5)
[4] = target: GST-RNF38^RING-R454H (UniProt Q9H0F5)
[5] = target: GST-RNF38^RING-R454W (UniProt Q9H0F5)
[6] = target: GST-RNF38^RING-R454N (UniProt Q9H0F5)
[7] = target: GST-RNF38^RING-R454K (UniProt Q9H0F5)
[8] = target: GST-RNF38^RING-R454Q (UniProt Q9H0F5)
[9] = target: GST-RNF38^RING-R454D (UniProt Q9H0F5)
[10] = target: GST-RNF38^RING-R454Y (UniProt Q9H0F5)
[11] = target: GST-RNF38^RING-R454A (UniProt Q9H0F5)
[12] = target: GST-RNF38^RING-R454M (UniProt Q9H0F5)
[13] = target: GST-RNF38^RING-R454C (UniProt Q9H0F5)
[14] = target: GST-RNF38^RING-R454I (UniProt Q9H0F5)
[15] = target: GST-RNF38^RING-R454P (UniProt Q9H0F5)
[16] = target: GST-RNF38^RING-R454S (UniProt Q9H0F5)
[17] = target: GST-RNF38^RING-R454L (UniProt Q9H0F5)
[18] = target: GST-RNF38^RING-WT (UniProt Q9H0F5)
[19] = target: GST-RNF38^RING-R454V (UniProt Q9H0F5)
[20] = target: GST-RNF38^RING-R454G (UniProt Q9H0F5)

Substance	Kd [1]	Kd [2]	Kd [3]	Kd [4]	Kd [5]	Kd [6]	Kd [7]	Kd [8]	Kd [9]	Kd [10]	Kd [11]	Kd [12]	Kd [13]	Kd [14]	Kd [15]	Kd [16]	Kd [17]	Kd [18]	Kd [19]	Kd [20]
UBE2D2^S22R (from UniProt P62837 1-147) (enzyme)	755 µM	160 µM	173 µM	200 µM	63.1 µM	623 µM	132 µM	101 µM	270 µM	138 µM	167 µM	139 µM	209 µM	111 µM	245 µM	153 µM	166 µM	105 µM	173 µM	393 µM
UBE2D2^S22R,C85K–Ub (from UniProt P62837 2-147; P0CG48 1-76) (complex)	111 µM	63 µM	45.4 µM	55.7 µM	24.3 µM	106 µM	30.2 µM	29.2 µM	69.8 µM	23.8 µM	60.4 µM	31.2 µM	56.5 µM	42 µM	82.7 µM	59.5 µM	46.7 µM	2.5 µM	53.9 µM	91 µM
